Results taken from US11859229B2, “Polyvinyl alcohol-degrading enzyme and process for producing the same” (Hayashibara Co., Ltd., priority 2017, dated 2024).

Key:
Type in all cases: biochemical
[1] = Assay for PVA-oxidizing activity (hydrogen peroxide formation, titanium reagent, A410)
Description: As shown in the above (1), the PVA-degrading enzyme of the present invention has an PVA-oxidizing activity, i.e., an activity of catalyzing the reaction of oxidizing PVA as substrate and forming hydrogen peroxide. For example, the PVA-oxidizing activity can be measured by the following method.
To 0.5 mL of a substrate solution prepared by dissolving PVA (Reagent grade polyvinyl alcohol, polymerization degree: 2,000, Nacalai Tesque Inc., Kyoto, Japan) into 100 mM sodium phosphate buffer (pH 7.0) to give a concentration of 2% (w/v), 15 µL of 2% (w/v) of sodium azide solution was added, and then 0.5 mL of an enzyme solution is further added and reacted with shaking at 27° C. for 60 min. After the 60 min-reaction, the reaction was stopped by mixing 0.32 mL of the reaction mixture to 0.8 mL of a titanium reagent, and the yellow color, produced by reacting hydrogen peroxide formed by the enzyme reaction and the titanium reagent, was measured by measuring the absorbance at 410 nm (A410) as an index. Separately, the enzyme solution was added to the substrate solution, and the resulting mixture is immediately mixed with the titanium reagent. The resulting mixture was similarly measured its color and the value was used as the value at the reaction zero minutes. Then, the amount of the formed hydrogen peroxide is determined and the PVA-oxidizing activity is calculated based on the following formula. It is known that the absorbance at 410 nm (A410) increases by “1” when 3.65 […]mole/mL of hydrogen peroxide is formed. Therefore, in the following Formula 1, the coefficient of “3.65” has been multiplied. One unit of the PVA-oxidizing activity is defined as the amount of enzyme that forms 1 […]mole of hydrogen peroxide per min under the above conditions. Titanium reagent is prepared by diluting 5% titanium sulfate (IV) solution, commercialized by Nacalai Tesque Inc., Kyoto, Japan, 25-fold with 10% (w/w) sulfuric acid.

[2] = Gel filtration HPLC of PVA degradation products (molecular weight); settings: 10 units of the enzyme on 1% (w/v) PVA for 20 hours; substrate PVA Mw about 10.6×10^4
Description: While, the molecular weight of the degraded product of PVA was analyzed by conventional gel filtration HPLC for a reaction mixture obtained by allowing 10 units of the enzyme to act on 1% (w/v) PVA solution for 20 hours. Gel filtration HPLC was carried out using the following conditions: • Column: “TSKgel […]-4000” (manufactured by Tosoh Corporation, Tokyo, Japan) • (Two columns were tandemly connected.); • Eluent: 50 mM phosphate buffer eluent (pH7.0); • Column temperature: 40° C.; • Flow rate: 0.5 mL/min; • Detector: “RID-20A”, a differential refractometer, manufactured by Shimadzu Corporation, Kyoto, Japan.
The molecular weights of PVA and the degradation products of PVA were respectively calculated based on a calibration curve of molecular weights prepared by subjecting pullulan standards for molecular weight measurement, commercialized by Hayashibara Co., Ltd., Okayama, Japan, to gel filtration HPLC in the same manner. The gel filtration HPLC chromatogram of the reaction mixture (symbol “b” in FIG. 11) is shown in FIG. 11 in comparison with that of PVA used as a substrate (symbol “a” in FIG. 11).

[3] = PVA-degrading (viscosity-reducing) activity; settings: at each purification step
Description: While, activity as a PVA-degrading enzyme can be measured, for example, by measuring the viscosity reduction of a PVA solution, caused by the degradation of PVA, as an index using the following method.
To 0.5 mL of a substrate solution prepared by dissolving PVA (Reagent grade polyvinyl alcohol, polymerization degree: 2,000, Nacalai Tesque Inc., Kyoto, Japan) into 100 mM sodium phosphate buffer (pH 7.0) to give a concentration of 2% (w/v), 15 µL of 2% (w/v) of sodium azide solution was added, and then 0.5 mL of an enzyme solution is further added and reacted with shaking at 27° C. for 60 min. After the reaction, 0.6 mL of the reaction mixture was withdrawn and its viscosity was measured using a Cone plate-type viscometer (“DV-II+Pro”, Brookfield Co., Ltd.) at 30° C. Separately, the enzyme solution was added to the substrate solution and the viscosity was measured immediately, and the viscosity was used as that at zero-min reaction. The PVA-degrading activity was calculated based on the following formula. One unit of the PVA-degrading activity was defined as the amount of enzyme that causes a 10%-reduction of relative viscosity per min under the above conditions. […]

[4] = Detection of β-diketone hydrolyzing activity (acetone from 2,4-pentanedione by gas chromatography); parameters: key: Yes: Acetone, a product by the hydrolysis, was qualitatively detected; settings: qualitative
Source text: As shown in the above (2), the PVA-degrading enzyme of the present invention has an activity of hydrolyzing […]-diketone, i.e., […]-diketone-hydrolyzing activity. Enzymes having β-diketone-hydrolyzing activity can hydrolyze an oxidized PVA having a […]-diketone structure (i.e., oxidized PVA). Beta-diketone-hydrolyzing activity can be detected by examining the activity of hydrolyzing 2, 4-pentanedione which is a model compound of oxidized PVA having a […]-diketone structure. Acetone and acetic acid are formed when a PVA-degrading enzyme hydrolyzes 2,4-pentanedione. Therefore, for example, […]-diketone-hydrolyzing activity can be detected by the following method using 2,4-pentanedione as a substrate.
2,4-Pentanedione (Reagent grade, commercialized by Wako Pure Chemical Industries Co., Ltd., Osaka, Japan) was added to 50 mM sodium phosphate buffer (pH 7.0) to give a concentration of 0.2% (w/v) to make into a substrate solution. To 1 mL of the substrate solution, 0.2 mL of enzyme solution and 0.8 mL of 50 mM sodium phosphate buffer (pH 7.0) were added and then the mixture was shaken at 27° C. for 3 hours for the reaction. After the reaction, 2 mL of the reaction mixture was withdrawn and put in a glass vial, and then the vial was sealed and heated at 95° C. for 40 min. […]

B1: PVA-A: purified PVA-degrading hybrid enzyme from Pseudomonas sp. VT1B strain, amino acid sequence of SEQ ID NO: 2 (protein, listed as Pseudomonas sp.)
chain: AENWPMFGKNYENTRATSDTQISTANISTLNVVRRTTDGGITGTPTVVDGVAYYSDFSGYVKAVRVSDGVVLWRVRPQTTMLSPSPFVTADTVYVAGNNSYVYALNRANGAVRWTTQIETSPNSRISSSPIVVGNILIIGTGSYQVFLPATPMFRGRVAFLNATTGAILPYSTNMCPSASCGGGISVWSTAAIDESTRTGYIGTGQAYRDPAGPYSDALVAFNIDTGAIRWARQFLANDVYQLGGTLRYDYDVGAAPNLFVANGQRMVGVGGKDGTYRAFNRDTGAPIWNTPVGRGSAIGGVMQSTAYGDGRIYVTSNTSTIGSGRNDPVPATAEASALDAATGAPVWIRQLDAGGFGGVAYANGLMYASTWDGRLRVFNAANGNIVREVQVSPSRGAYVPAPTDGFPNGSAGGPVVYGNRVLMGYGWTWVLNINGGLTTMEATVGGGASQTVTLASSSDTYVQSGTPTTNYAYDVNLLARLADAEGLTRASFLQFPLTAVPAGTITSARLRLYGRHDAPTGTGQSVSVWPGTKTTTWSGPNVTYNNSSTETGVDFYATSSIATATVGITPQYYEWNVTDYVASRRSLGHATFGVAVNSAHQYRVTLNSADNTANRPELVVTVSGGTGSQLPGSCPSGFTARAGVNQGFMHNGVARGFVLNVPANVSTPRPVFVSLTGSVESTNENLGARGGAGALNNDGFLVIGPVRRCAGQDPNGAGTSVNGGTCNQAGTGGWNWNPWNEGRVFAAAGDPWKTAEGPDSQFLEAVVRCVAASYPVDSTRMYLGGISSGATMTHRALLFNSDFWAGGLPLSGEWYVSQDNGTAYPGADEFAARRQAVINNPTKIFQGRVGPLPLPATQSPMIVISMWGGANDIWYCGSTLCADYRPSTQAASNYFSALPNVVHVACSSSHGHQWPTQNRAAFNTWAATTLASHPKGTPASSFVLPPPPAGYSCRVGRYTDHYSGT
- Specific activity ([1]; PVA-oxidizing activity per mg protein at each purification step): 3.2 U/mg
- Total Activity (PVA-oxidizing activity) ([1]; at each purification step, from 4 L culture supernatant): 5.4 U
- weight average molecular weight (Mw) of the degraded products of PVA [2]: about 4,400
- Total PVA-Degrading Activity (Viscosity-reducing Activity) [3]: 8.2 U
- 2,4-Pentanedione-Degrading Activity [4]: Yes*
